{"source": "patent US8455448B2", "about": "“Myostatin isoform” (Myostin Therapeutics Pty Ltd, priority 2004, dated 2013)", "format_in_all_cases": "cell-based, murine", "key": {"[1]": {"tested_on": "proliferating cell nuclear antigen (PCNA)", "assay": "PCNA protein in proliferating C2C12 myoblasts (Western blot)", "details": "0.1, 1, 10 μg/ml, 48 h, FIG. 7", "protocol": "Thus, a decrease in p21 protein expression may indicate an increased cell proliferation rate. PCNA is a positive marker of cell proliferation. It is a subunit of DNA polymerase-delta during DNA replication in the cell cycle. Higher level of PCNA protein expression is associated with higher number of cells entering the DNA replication phase of the cell cycle.\nC2C12 myoblasts were seeded in 10 cm diameter tissue culture plates (Nunc, Roskilde, Denmark) at a cell density of 3000 cells per cm^2 in 10 ml of Dulbecco's modified Eagle's medium (DMEM, Invitrogen, California) supplemented with foetal bovine serum (FBS, 10% v/v, Invitrogen), penicillin (1×105 IU/l, Sigma, St Louis, Mo., USA) and streptomycin (100 mg/l, Sigma) buffered with NaHCO3 containing phenol red (7.22 nmol/l) as a pH indicator, and incubated overnight at 37° C. with 5% CO2. The medium was replaced with the test medium: DMEM with 10% FBS supplemented with, 0.1, 1 or 10 μg/ml oMSV65 (n=3). The plates were then incubated at 37° C. with 5% CO2 for 48 hours. Cells were removed from the plate by trypsin treatment, washed with phosphate buffered saline (PBS, Oxoid, UK) and resuspended in 100 μl of lysis buffer (10 mM Hepes pH 7.9, 1.5 mM MgCl2, 10 mM KCl, 0.5% NP40, one Complete protease inhibitor tablet [Roche Diagnostics, USA] per 50 ml buffer). […] Band intensities were measured with a GS800 densitometer (BioRad, USA)."}, "myogenin": {"tested_on": "myogenin", "assay": "Myogenin protein in differentiating C2C12 myoblasts (Western blot)", "details": "0, 0.1, 1, 10 μg/ml, 72 h in differentiation medium, FIG. 4", "protocol": "(§1) To investigate whether roMSV65 regulates myoblast differentiation or myotube hypertrophy, C2C12 myoblast cultures were employed. Levels of well-established early and late molecular markers of myogenic differentiation like myogenin and dMHC were measured in the presence and absence of roMSV65 protein.\n(§2) C2C12 myoblasts were seeded in 10 cm diameter tissue culture plates (Nunc, Roskilde, Denmark) at a cell density of 25,000 cells per cm^2 in 10 ml of Dulbecco's modified Eagle's medium (DMEM, Invitrogen, California) supplemented with foetal bovine serum (FBS, 10% v/v, Invitrogen), penicillin (1×10^5 IU/l, Sigma, St Louis, Mo., USA) and streptomycin (100 mg/I, Sigma) buffered with NaHCO3 containing phenol red (7.22 nmol/l) as a pH indicator, and incubated overnight at 37° C. with 5% CO2.\nTo study myoblast differentiation, the medium was replaced with the test medium: DMEM with 2% Horse Serum supplemented with 0, 0.1, 1 or 10 μg/ml roMSV65 in three replicates for each concentration (n=3). […]\n(§3) Cells were removed from the plate by trypsin treatment, washed with phosphate buffered saline (PBS, Oxoid, UK) and resuspended in 200 μl of lysis buffer (10 mM Hepes pH 7.9, 1.5 mM MgCl2, 10 mM KCl, 0.5% NP40, one Complete protease inhibitor tablet [Roche Diagnostics, USA] per 50 ml buffer). […] Band intensities were measured with a GS800 densitometer (Bio-Rad, CA)."}, "[2]": {"tested_on": "developmental myosin heavy chain (dMHC)", "assay": "Developmental myosin heavy chain (dMHC) protein in C2C12 myotubes (Western blot)", "details": "FIG. 5", "protocol": "as §1, §2\nTo study myoblast differentiation, the medium was replaced with the test medium: DMEM with 2% Horse Serum supplemented with 0, 0.1, 1 or 10 μg/ml roMSV65 in three replicates for each concentration (n=3). Plates were incubated at 37° C. with 5% CO2 for 72 hours.\nas §3, with “buffer). The protein concentration was estimated using the bicinchoninic acid (BCA, Sigma, Missouri) protein assay. 20 μg of total protein was separated by SDS-PAGE (8% for MHC or 12% for myogenin) and transferred to nitrocellulose membrane by electroblotting. The blots were stained with Ponceau S stain to check equal loading.” for “buffer).”"}}, "data": [{"molecule": "roMSV65: 65 amino acid C-terminal peptide of ovine MSV (SEQ ID NO: 49) expressed as recombinant protein in E. coli (protein, Ovis aries) VHFYTPPYGQWIFHKERKIIFLEVYIQFCSILGEAVFKRQSKSIHFCQNFKIIACLCNTAAFRMK", "values": [{"measurement": "PCNA protein levels in C2C12 myoblasts", "setting": "[1]", "value": "concentration-dependent increase in PCNA protein levels"}, {"measurement": "myogenin protein levels in C2C12 myotubes", "setting": "myogenin", "value": "dose-dependently increases myogenin protein levels"}, {"measurement": "increase in dMHC abundance compared to untreated controls", "setting": "[2]; 0.1 μg/ml roMSV65, 72 h", "value": 18, "unit": "fold"}, {"measurement": "increase in dMHC abundance compared to untreated controls", "setting": "[2]; 1 μg/ml roMSV65, 72 h", "value": 20, "unit": "fold"}, {"measurement": "increase in dMHC abundance compared to untreated controls", "setting": "[2]; 10 μg/ml roMSV65, 72 h", "value": 2, "unit": "fold"}]}]}
